Results: the supplement of paper PMC9170038

system: K4 kissing-loop RNA reporter; experiment: apparent KD of K4 kissing-loop reporter; higher = weaker reporter binding; conditions: Eterna round: R107; input ligand: theophylline 20 uM
Method: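 RNA-MaP round R107: designed RNA switches with theophylline, tryptophan, arginine or FMN aptamers are transcribed on-chip within common flanks. They are titrated with a labelled K4 kissing-loop RNA reporter in RNA-MaP buffer (100 mM Tris pH 7.5, 80 mM KCl, 4 mM MgCl2), without ligand or with the indicated ligand. Median apparent KD per design.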
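Further: bound reporter read as fluorescence of individual clusters on recovered sequencing chips by microscopy, with normalized cluster intensities fitted with a binding model.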

| Sequence | apparent KD of K4 kissing-loop reporter [µM] |
| --- | --- |
| GUGUGUGAAAACACGCACUUAUAUCCUAGGCAGGAUAUGCGGAAACGCAGAAGGGCCACCGGCGAGAAAAUCCAGUGAUGUUGGA [Ex FMN A 6] | 0.192 |
| ACGUGCACGAGUGAUGUUUGAAAAUCUGAAGGAGCGGGCGAAAGCCCAGGUAGGUCGCAGAAUAGCACGAGCCACGAAAGUGGCA | 0.142 |
| UAGGAGUGAUGUUCCAUAUCUUGAGCCGAAGGAGCGCCUUUCUAGGCAGGUAGGUCGCGGCAGAAGGUACCAGUGAUGUUGGAAA [Same State Arginine A GF7] | 0.184 |
| UUAUAAUUCAGUGAUGUUGAAAAUAUAACAGAGGAUAUGCGUUUAAGCAGAAGGCUGAAAUACUAUACUUUAAUCUAUUAAAUUU [JR_SSFMNA_Sub019] | 0.332 |
| CACAGAUCCUAAGGAUAUGGAGUGAUGUUCGCAAGUUCUUGGUGUGCAUUCAUCUGUCCUAUCAACCCAGAAGGUAGGAAGUCAC [theeternabot_exclusion_KL_FMN_B_1] | 0.993 |
| UGUCAUUGGUCUGAUACCAGUUGAUAAACUGGAGUGAUGUUCCUCGACGAAUACGUCGACAACCCUUGGCAGCAGACCGAUGACU [TheoBS 14 #SwitchBubble 13 #StaticStem] | 0.354 |
| GUGAGGAUCAGAAGGAGCGUCGGCAAUCCAGUGAUGUUGGGUGUUGGUUAUAUUUAACGACGACAGGUAGGUCGCUGAUUUUCAA [Same State Arginie B GF 21] | 0.19 |
| UGACUACAAAAGGAAUAAUCCUAGUGAUGUUAGGAUAUGCUGAUAAGCAGAAGGAACGGAGAUCGAAGGAUCUCAUAUGUAGUCU [whbob_Ex_FMNA__2th193] | 0.117 |
| GUAUGUUCGAAAGAACGUACAUCUUCGGAAGGAGCGCGUGAAAACGCAGGUAGGUCGCCGAAGUUAUUAGGUAGUGAUGUUACCU [Arginine A K4 8] | 0.109 |
| AAAGAUCUUCUAGAAACUAGAAGAUCAAGAGAGGAUAUCCGAAUUCGGAGAAGGCUCACUAAGUGAUGUUUGGACCCAAAGGGAA [AK3 SS FMN A] | 1.6 |
| AGUGAUGUAUGGCGGUUUGUCACUUAUAAUCAGGAUAUAUAAACAAAUAGAAGGGAUGGCGGAGUGAUGUUCCGCCGGCCGCCAU [FMN A Exl V5] | 0.172 |
| AUCGUUGUCUGAGGAUAUCGGUUAUCUGUAGUGAUGUUACAGUAUAUUGAUAUUAAAGUUUCUAUUCGAGAAGGCAGACUACGUA [JR_Nu_ExcFMNB_Sub022] | 0.0589 |
| CAUGUGUCUAUUACGAUGGAUACAUAUACUGAGGAUAUCACAUUUAUGAGAAGGCAGUAAACUGCGAGUGAUGUUCGCAGUACGU [FMN A SS t8] | 0.316 |
| AUGGUAUUGCGAGGAUAUCCUUCAAACGUGACACUAACGGCAGUGAUGUUGCCGGCGUCGAUCAGAGGAGAAGGCGCGGUGUUAU [Exclusion FMN B GF 23] | 0.125 |
| GCCAGUGCGCGAAGGAGCGCCGUGACAGGUUACUGCCUUGGGCAGUGAUGUUGCUCAAUCUGGCAGGUAGGUCGCGUGCACUGGC | 0.204 |
| GUGCAGUGAUGUUGCACGAGGAAAGACGAUACCAGCCGUAAAUAUGGCCCUUGGCAGCGUGGGCUAGCACAAAAUGUGCUAGUCU [Zareatza] | 0.107 |
| AAACGCUUGAAUAACAAGCGAAAUAAAAUUCGAGGACCGGUACGGCCGCCACUCGGGCUAACUGCGAGUGAUGUUCGAAAAUAAA [Mat - Mod of OpenEnded 3 - D17] | 0.405 |
| GCCGUACGCAUGGAUACCAGUUGCGAAGUGAUGUUUCGGGCGAUCAAAGGAUCGCCAGACAACCCUUGGCAGCCAUGCGUACGGC | 0.769 |
| GCCGUACGCAUGGAUACCAGAGAUGUUAAUCUCGAUGCCAGUGAUGUUGGCUUUAGCUAUCUCCCUUGGCAGCCAUGCGUACGGC | 0.566 |
| UUAGAGAUCUCAGGAUAUCAGUGAUGUUGGUUGCCAGAUCUGAGAUAGAAUUCUAUCUCAGAUCAAUGAGAAGGGAGAUCUCAUU [AK4 Exc FMN B] | 0.317 |
| AUCAGUUCAGCUGAUACCAGUCAGGAGUGAUGUUCCUGCUCGCGUCAGCCGCGUCGACAAGACCCUUGGCAGCAGCUCUAAGUGU [theeternabot_exclusion_KL_Theo_B_40] | 0.103 |
| UGAUAGGACAGAAGGAGCGGGAGUGAUGUUCCCAAAGGAAGGUCUAGCAAAGCUGGACCCUCCCAGGUAGGUCGCUGUCCUAUCU [ArgBX 4 #SwitchBubble #StaticStem] | 0.155 |
| AGACUACCACACUGUCAAUAGACAGUGAACUAGGAUAUGCUGAUAAGCAGAAGGAGUGAUGUUCCUAAUAAGGUAGUCAUAUAAU [FmnAX 15 #SwitchBubble #StaticStem #K4Early] | 0.637 |
| AGGUCUGCACGAAGGAGCGCCCUGACAGGUUGCUGCCGUGGGCAGUGAUGUUGCUCAGUCCGGCAGGUAGGUCGCGUGCAGACCU | 0.0975 |
| UGAUCUCGGCAGUGAUGUUGCAUAUGAGAAGGAGCGCACGAAAGUGCAGGUAGGUCGCUCAGCCACGACGAAAGUCGCGAGAUCU [#SwitchBubble 3 #K4Early] | 0.238 |
| UUUCGUUUCGUCUGACAUAAUUGGCUAGAAGGAGCGGUAAAAUUACCAGGUAGGUCGCUAGCCCAGUGAUGUUGGGACUAGCGUA [Edries] | 0.116 |
| UGACUGGACUGAAGGAGCGCGAACUCCUAGUGAUGUUAGGAAAUACGAGACAAAGUCUCGACGCAGGUAGGUCGCAGUCUAGUCU [ArgBS 15 #SwitchBubble #StaticStem] | 0.104 |
